{"source": "patent US20090099029", "proteins": {"B1": {"name": "DMPK (protein)", "chain": "MSAEVRLRRLQQLVLDPGFLGLEPLLDLLLGVHQELGASELAQDKYVADFLQWAEPIVVRLKEVRLQRDDFEILKVIGRGAFSEVAVVKMKQTGQVYAMKIMNKWDMLKRGEVSCFREERDVLVNGDRRWITQLHFAFQDENYLYLVMEYYVGGDLLTLLSKFGERIPAEMARFYLAEIVMAIDSVHRLGYVHRDIKPDNILLDRCGHIRLADFGSCLKLRADGTVRSLVAVGTPDYLSPEILQAVGGGPGTGSYGPECDWWALGVFAYEMFYGQTPFYADSTAETYGKIVHYKEHLSLPLVDEGVPEEARDFIQRLLCPPETRLGRGGAGDFRTHPFFFGLDWDGLRDSVPPFTPDFEGATDTCNFDLVEDGLTAMVSGGGETLSDIREGAPLGVHLPFVGYSYSCMALRDSEVPGPTPMELEAEQLLEPHVQAPSLEPSVSPQDETAEVAVPAAVPAAEAEAEVTLRELQEALEEEVLTRQSLSREMEAIRTDNQNFASQLREAEARNRDLEAHVRQLQERMELLQAEGATAVTGVPSPRATDPPSHLDGPPAVAVGQCPLVGPGPMHRRHLLLPARVPRPGLSEALSLLLFAVVLSRAAALGCIGLVAHAGQLTAVWRRPGAARAP"}, "B2": {"name": "IKBKB (protein)", "chain": "MSWSPSLTTQTCGAWEMKERLGTGGFGNVIRWHNQETGEQIAIKQCRQELSPRNRERWCLEIQIMRRLTHPNVVAARDVPEGMQNLAPNDLPLLAMEYCQGGDLRKYLNQFENCCGLREGAILTLLSDIASALRYLHENRIIHRDLKPENIVLQQGEQRLIHKIIDLGYAKELDQGSLCTSFVGTLQYLAPELLEQQKYTVTVDYWSFGTLAFECITGFRPFLPNWQPVQWHSKVRQKSEVDIVVSEDLNGTVKFSSSLPYPNNLNSVLAERLEKWLQLMLMWHPRQRGTDPTYGPNGCFKALDDILNLKLVHILNMVTGTIHTYPVTEDESLQSLKARIQQDTGIPEEDQELLQEAGLALIPDKPATQCISDGKLNEGHTLDMDLVFLFDNSKITYETQISPRPQPESVSCILQEPKRNLAFFQLRKVWGQVWHSIQTLKEDCNRLQQGQRAAMMNLLRNNSCLSKMKNSMASMSQQLKAKLDFFKTSIQIDLEKYSEQTEFGITSDKLLLAWREMEQAVELCGRENEVKLLVERMMALQTDIVDLQRSPMGRKQGGTLDDLEEQARELYRRLREKPRDQRTEGDSQEMVRLLLQAIQSFEKKVRVIYTQLSKTVVCKQKALELLPKVEEVVSLMNEDEKTVVRLQEKRQKELWNLLKIACSKVRGPVSGSPDSMNASRLSQPGQLMSQPSTASNSLPEPAKKSEELVAEAHNLCTLLENAIQDTVREQDQSFTALDWSWLQTEEEEHSCLEQAS"}, "B3": {"name": "EPHA4 (protein)", "chain": "SRRRSKYSKAKQEADEEKHLNQGVRTYVDPFTYEDPNQAVREFAKEIDASCIKIEKVIGVGEFGEVCSGRLKVPGKREICVAIKTLKAGYTDKQRRDFLSEASIMGQFDHPNIIHLEGVVTKCKPVMIITEYMENGSLDAFLRKNDGRFTVIQLVGMLRGIGSGMKYLSDMSYVHRDLAARNILVNSNLVCKVSDFGMSRVLEDDPEAAYTTRGGKIPIRWTAPEAIAYRKFTSASDVWSYGIVMWEVMSYGERPYWDMSNQDVIKAIEEGYRLPPPMDCPIALHQLMLDCWQKERSDRPKFGQIVNMLDKLIRNPNSLKRTGTESSRPNTALLDPSSPEFSAVVSVGDWLQAIKMDRYKDNFTAAGYTTLEAVVHVNQEDLARIGITAITHQNKILSSVQAMRTQMQQMHGRMVPV"}, "B4": {"name": "GRK4 (protein)", "chain": "MELENIVANSLLLKARQGGYGKKSGRSKKWKEILTLPPVSQCSELRHSIEKDYSSLCDKQPIGRRLFRQFCDTKPTLKRHIEFLDAVAEYEVADDEDRSDCGLSILDRFFNDKLAAPLPEIPPDVVTECRLGLKEENPSKKAFEECTRVAHNYLRGEPFEEYQESSYFSQFLQWKWLERQPVTKNTFRHYRVLGKGGFGEVCACQVRATGKMYACKKLQKKRIKKRKGEAMALNEKRILEKVQSRFVVSLAYAYETKDALCLVLTIMNGGDLKFHIYNLGNPGFDEQRAVFYAAELCCGLEDLQRERIVYRDLKPENILLDDRGHIRISDLGLATEIPEGQRVRGRVGTVGYMAPEVVNNEKYTFSPDWWGLGCLIYEMIQGHSPFKKYKEKVKWEEVDQRIKNDTEEYSEKFSEDAKSICRMLLTKNPSKRLGCRGEGAAGVKQHPVFKDINFRRLEANMLEPPFCPDPHAVYCKDVLDIEQFSVVKGIYLDTADEDFYARFATGCVSIPWQNEMIESGCFKDINKSESEEALPLDLDKNIHTPVSRPNRGFFYRLFRRGGCLTMVPSEKEVEPKQC"}, "B5": {"name": "GSK3A (protein)", "chain": "MSGGGPSGGGPGGSGRARTSSFAEPGGGGGGGGGGPGGSASGPGGTGGGKASVGAMGGGVGASSSGGGPGGSGGGGSGGPGAGTSFPPPGVKLGRDSGKVTTVVATLGQGPERSQEVAYTDIKVIGNGSFGVVYQARLAETRELVAIKKVLQDKRFKNRELQIMRKLDHCNIVRLRYFFYSSGEKKDELYLNLVLEYVPETVYRVARHFTKAKLTIPILYVKVYMYQLFRSLAYIHSQGVCHRDIKPQNLLVDPDTAVLKLCDFGSAKQLVRGEPNVSYICSRYYRAPELIFGATDYTSSIDVWSAGCVLAELLLGQPIFPGDSGVDQLVEIIKVLGTPTREQIREMNPNYTEFKFPQIKAHPWTKVFKSRTPPEAIALCSSLLEYTPSSRLSPLEACAHSFFDELRCLGTQLPNNRPLPPLFNFSAGELSIQPSLNAILIPPHLRSPAGTTTLTPSSQALTETPTSSDWQSTDATPTLTNSS"}, "B6": {"name": "DYRK3 (protein)", "chain": "MGGTARGPGRKDAGPPGAGLPPQQRRLGDGVYDTFMMIDETKCPPCSNVLCNPSEPPPPRRLNMTTEQFTGDHTQHFLDGGEMKVEQLFQEFGNRKSNTIQSDGISDSEKCSPTVSQGKSSDCLNTVKSNSSSKAPKVVPLTPEQALKQYKHHLTAYEKLEIINYPEIYFVGPNAKKRHGVIGGPNNGGYDDADGAYIHVPRDHLAYRYEVLKIIGKGSFGQVARVYDHKLRQYVALKMVRNEKRFHRQAAEEIRILEHLKKQDKTGSMNVIHMLESFTFRNHVCMAFELLSIDLYELIKKNKFQGFSVQLVRKFAQSILQSLDALHKNKIIHCDLKPENILLKHHGRSSTKVIDFGSSCFEYQKLYTYIQSRFYRAPEIILGSRYSTPIDIWSFGCILAELLTGQPLFPGEDEGDQLACMMELLGMPPPKLLEQSKRAKYFINSKGIPRYCSVTTQADGRVVLVGGRSRRGKKRGPPGSKDWGTALKGCDDYLFIEFLKRCLHWDPSARLTPAQALRHPWISKSVPRPLTTIDKVSGKRVVNPASAFQGLGSKLPPVVGIANKLKANLMSETNGSIPLCSVLPKLIS"}, "B7": {"name": "EPHA5 (protein)", "chain": "SGSCCECGCGRASSLCAVAHPSLIWRCGYSKAKQDPEEEKMHFHNGHIKLPGVRTYIDPHTYEDPNQAVHEFAKEIEASCITIERVIGAGEFGEVCSGRLKLPGKRELPVAIKTLKVGYTEKQRRDFLGEASIMGQFDHPNIIHLEGVVTKSKPVMIVTEYMENGSLDTFLKKNDGQFTVIQLVGMLRGISAGMKYLSDMGYVHRDLAARNILINSNLVCKVSDFGLSRVLEDDPEAAYTTRGGKIPIRWTAPEAIAFRKFTSASDVWSYGIVMWEVVSYGERPYWEMTNQDVIKAVEEGYRLPSPMDCPAALYQLMLDCWQKERNSRPKFDEIVNMLDKLIRNPSSLKTLVNASCRVSNLLAEHSPLGSGAYRSVGEWLEAIKMGRYTEIFMENGYSSMDAVAQVTLEDLRRLGVTLVGHQKKIMNSLQEMKVQLVNGMVPL"}, "B8": {"name": "IRAK4 (protein)", "chain": "MNKPITPSTYVRCLNVGLIRKLSDFIDPQEGWKKLAVAIKKPSGDDRYNQFHIRRFEALLQTGKSPTSELLFDWGTTNCTVGDLVDLLIQNEFFAPASLLLPDAVPKTANTLPSKEAITVQQKQMPFCDKDRTLMTPVQNLEQSYMPPDSSSPENKSLEVSDTRFHSFSFYELKNVTNNFDERPISVGGNKMGEGGFGVVYKGYVNNTTVAVKKLAAMVDITTEELKQQFDQEIKVMAKCQHENLVELLGFSSDGDDLCLVYVYMPNGSLLDRLSCLDGTPPLSWHMRCKIAQGAANGINFLHENHHIHRDIKSANILLDEAFTAKISDFGLARASEKFAQTVMTSRIVGTTAYMAPEALRGEITPKSDIYSFGVVLLEIITGLPAVDEHREPQLLLDIKEEIEDEEKTIEDYIDKKMNDADSTSVEAMYSVASQCLHEKKNKRPDIKKVQQLLQEMTAS"}, "B9": {"name": "GRK7 (protein)", "chain": "MVDMGALDNLIANTAYLQARKPSDCDSKELQRRRRSLALPGLQGCAELRQKLSLNFHSLCEQQPIGRRLFRDFLATVPTFRKAATFLEDVQNWELAEEGPTKDSALQGLVATCASAPAPGNPQPFLSQAVATKCQAATTEEERVAAVTLAKAEAMAFLQEQPFKDFVTSAFYDKFLQWKLFEMQPVSDKYFTEFRVLGKGGFGEVCAVQVKNTGKMYACKKLDKKRLKKKGGEKMALLEKEILEKVSSPFIVSLAYAFESKTHLCLVMSLMNGGDLKFHIYNVGTRGLDMSRVIFYSAQIACGMLHLHELGIVYRDMKPENVLLDDLGNCRLSDLGLAVEMKGGKPITQRAGTNGYMAPEILMEKVSYSYPVDWFAMGCSIYEMVAGRTPFKDYKEKVSKEDLKQRTLQDEVKFQHDNFTEEAKDICRLFLAKKPEQRLGSREKSDDPRKHHFFKTINFPRLEAGLIEPPFVPDPSVVYAKDIAEIDDFSEVRGVEFDDKDKQFFKNFATGAVPIAWQEEIIETGLFEELNDPNRPTGCEEGNSSKSGVCLLL"}, "B10": {"name": "GRK6 (protein)", "chain": "MELENIVANTVLLKAREGGGGNRKGKSKKWRQMLQFPHISQCEELRLSLERDYHSLCERQPIGRLLFREFCATRPELSRCVAFLDGVAEYEVTPDDKRKACGRQLTQNFLSHTGPDLIPEVPRQLVTNCTQRLEQGPCKDLFQELTRLTHEYLSVAPFADYLDSIYFNRFLQWKWLERQPVTKNTFRQYRVLGKGGFGEVCACQVRATGKMYACKKLEKKRIKKRKGEAMALNEKQILEKVNSRFVVSLAYAYETKDALCLVLTLMNGGDLKFHIYHMGQAGFPEARAVFYAAEICCGLEDLHRERIVYRDLKPENILLDDHGHIRISDLGLAVHVPEGQTIKGRVGTVGYMAPEVVKNERYTFSPDWWALGCLLYEMIAGQSPFQQRKKKIKREEVERLVKEVPEEYSERFSPQARSLCSQLLCKDPAERLGCRGGSAREVKEHPLFKKLNFKRLGAGMLEPPFKPDPQAIYCKDVLDIEQFSTVKGVELEPTDQDFYQKFATGSVPIPWQNEMVETECFQELNVFGLDGSVPPDLDWKGQPPAPPKKGLLQRLFSRQDCCGNCSDSEEELPTRL"}}}
{"biological_target": "T1, Bovine, dephosphorylated, Myelin Basic Protein (MBP), P02687", "T1 chain": "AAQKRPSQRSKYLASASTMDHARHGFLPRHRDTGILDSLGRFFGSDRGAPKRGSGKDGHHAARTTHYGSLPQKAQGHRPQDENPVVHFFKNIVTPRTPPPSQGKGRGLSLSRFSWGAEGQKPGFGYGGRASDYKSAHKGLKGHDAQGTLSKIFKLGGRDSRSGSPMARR"}
{"protein": "B1", "MBP Kinase Activity": "Negative"}
{"protein": "B2", "MBP Kinase Activity": "Weak"}
{"protein": "B3", "MBP Kinase Activity": "Strong"}
{"protein": "B4", "MBP Kinase Activity": "Negative"}
{"protein": "B5", "MBP Kinase Activity": "Weak"}
{"protein": "B6", "MBP Kinase Activity": "Negative"}
{"protein": "B7", "MBP Kinase Activity": "Negative"}
{"protein": "B8", "MBP Kinase Activity": "Strong"}
{"protein": "B9", "MBP Kinase Activity": "Negative"}
{"protein": "B10", "MBP Kinase Activity": "Negative"}
